Entries after “also recorded” stand apart in the source; their conditions may differ.
Assays:
human NK cells = assay: Characterization of human NK cells in tumor-free NSG mice; format: in vivo; settings: 10 mg/kg, 24 hours later, blood
Protocol: (§1) Tumor-free NSG mice were inoculated intravenously with 2×10^6 human NK cells that were expanded in vitro as described above. At the same time, mice also received intraperitoneal injections of IL-2 (7.5×10^4) as well as panobinostat (10 mg/kg) or PBS as the solvent control. One day later, blood was collected via eye bleeding, and human NK cells were analyzed by flow cytometry.
as §1, with “(7.5×10^4, Peprotech)” for “(7.5×10^4)”

MICA/B = MICA/B shedding assays in A375 melanoma cells (shed MICA ELISA, MICA/B surface levels by flow cytometry); format: cell-based; settings: control and B2M-KO A375 cells, 24 hours, vs isotype control
Protocol: 5×10^4 tumor cells were cultured for 24 hours in 96-wells plates (flat-bottom for adherent cells or U-bottom for suspension cells) in the presence of different concentrations of antibodies, IFNγ, and/or panobinostat (ApexBio, catalog number A8178), as indicated in each figure. Following a 24-hour culture period, plates were centrifuged for 5 minutes at 500× g, and supernatants were collected for analysis of shed MICA using the Human MICA ELISA Kit (Abcam, catalog number ab59569).
Adherent cells were detached with Versene (Gibco, catalog number 15040-066) to preserve the integrity of MICA/B proteins on the cell surface. Fc receptors were blocked using Human TruStain FcX™ (Biolegend, catalog number 422302), and cells were stained with PE or APC-conjugated anti-human MICA/B clone 6D4 (Biolegend, catalog numbers 320906 or 320908, respectively). […] Data were acquired using a BD Fortessa X20 or Beckman Coulter CytoFLEX LX, and analyses were performed using FlowJo V10 software.
5×10^4 tumor cells were cultured for 24 hours in 96-wells plates (flat-bottom for adherent cells or U-bottom for suspension cells) in the presence of different concentrations of antibodies, IFNγ, and/or panobinostat (ApexBio, catalog number A8178), as indicated in each figure. […]

A375 melanoma cells = assay: Long-term NK cell-mediated killing assay (image cytometry of GFP+ tumor cells); format: cell-based; settings: mAb 20 μg/ml pretreatment 24 hours, human NK cells, IL-2 300 U/ml, 72-hour period
Protocol: (§2) For long-term NK cell-mediated killing assays, GFP^+ control and B2M-KO A375 cells were pretreated for 24 hours with MICA/B or isotype control mAbs (20 μg/ml) in tissue culture media. Subsequently, tumor cells were detached with Versene, washed with PBS, and plated in black-wall 96-well plates (Corning™, catalog number 3603) at a density of 5×10^3 cells per well. Human NK cells were added 1-2 hours later at different effector to target ratios as indicated in the figures, and IL-2 (300 U/ml) was added to support NK cell survival. The number of GFP^+ tumor cells was tracked over time using a Celigo Image Cytometer (Nexcelom Bioscience, Lawrence, USA), as reported previously.^40
as §2, with “U/ml, BD Biosciences)” for “U/ml)”, “previously (33).” for “previously.^40”

Molecule | impact on human NK cells transferred to NSG mice (circulating NK cells, CD16a or NKG2D positive NK cells) (human NK cells) | MICA shedding (shed MICA, sandwich ELISA) (MICA/B) | surface levels of MICA/B (flow cytometry) (MICA/B) | efficacy in NK cell-mediated killing, B2M-KO vs control A375 cells (A375 melanoma cells)
Cc1[nH]c2ccccc2c1CCNCc1ccc(/C=C/C(=O)NO)cc1 [panobinostat] | did not negatively impact human NK cells; also recorded: did not inhibit reconstitution of NSG mice with human NK cells |  |  | 
7C6-hIgG1: MICA/B α3 domain specific mAb, clone 7C6 with human IgG1 Fc (antibody, V domains shown) VH: QIQLVQSGPELKKPGETVKVSCKASGYMFTNYAMNWVKQAPEKGLKWMGWINTHTGDPTYADDFKGRIAFSLETSASTAYLQINNLKNEDTATYFCVRTYGNYAMDYWGQGTSVTVSS VL: DIQMTQTTSSLSASLGDRVTISCSASQDISNYLNWYQQKPDGTVKLLIYDTSILHLGVPSRFSGSGSGTDYSLTISNLEPEDIATYYCQQYSKFPRTFGGGTTLEIK |  | inhibited MICA shedding | increased surface levels of MICA/B | substantially more effective against B2M-KO compared to control A375 melanoma cells

Source: patent US20220363766A1, “COMPOSITIONS AND METHODS FOR TREATING CYTOTOXIC T CELL RESISTANT TUMORS” (Dana-Farber Cancer Institute, Inc., priority 2019, published 2022)
